For one data set, the system named is P. gingivalis. Nature of the data set: Effect of ArcA domains on fimA expression. The class given is cell-based, Porphyromonas gingivalis. The settings on record: domain of ArcA as a whole.
Data set [1] can be described thus: Arginine deiminase activity of ArcA domain. The class given is biochemical.

B1: C-terminal domain: C-terminal domain of S. cristatus arginine deiminase, 208 amino acid portion (protein, listed as Streptococcus cristatus)
chain: VYNREEDTRIEGGDELVLSKDVLAVGISQRTDAASIEKLLVNIFKKNVGFKKVLAFEFANNRKFMHLDTVFTMVDYDKFTIHPEIEGDLRVYSVTYENEKLKIVEEKGDLAELLAQNLGVEKVHLIRCGGGNIVAAGREQWNDGSNTLTIAPGVVVVYDRNTVTNKILEEYGLRLIKIRGSELVRGRGGPRCMSMPFEREEV
Turning to B1, in the data set with P. gingivalis, the “effect on fimA expression of P. gingivalis” value is given as “observed to affect”. Moreover, the deiminase activity result in data set [1] was “does not have any deiminase activity”.
